Here are results for two variants from FireProtDB (doi:10.1110/ps.5101).

To fix the notation:
B1: Cytochrome c-551, P00099 (parent)
chain: MKPYALLSLLATGTLLAQGAWAEDPEVLFKNKGCVACHAIDTKMVGPAYKDVAAKFAGQAGAEAELAQRIKNGSQGVWGPIPMPPNAVSDDEAQTLAKWVLSQK

The variants in the data set derive from B1. The note with it: Pseudomonas aeruginosa (strain ATCC 15692 / DSM 22644 / CIP 104116 / JCM 14847 / LMG 12228 / 1C / PRS 101 / PAO1); pH 7; 10 °C; GdnHCl; Fluorescence; sodium phosphate 50 mM; reversible: yes; structure 451C; whole UniProt chain shown.

MKPYALLSLLATGTLLAQGAWAEDPEVLFKNKGCVACHAIDTKMVGPAYKDVAAKFAGQAGAEAELAQRIKNGSQGVWGPIPMPPNAVSDDVAQTLAKWVLSQK [E92V]: the “ddG of mutation (higher = less stable)” value was determined as 0.3 kcal/mol, the denaturant m value is 3.3 kcal/mol/M, the “denaturant midpoint (higher = more stable)” value came to 1.8 M and the unfolding free energy worked out at 5.8 kcal/mol.
Take MKPYALLSLLATGTLLAQGAWAEDPEVLFKNKGCVACHAIDTKMVGPAYKDVAAKFAGQAGAEAELAQRIKNGSQGVWGPIPMPPNAVSDDQAQTLAKWVLSQK [E92Q]: the “ddG of mutation (higher = less stable)” value was -0.2 kcal/mol, the denaturant m value turned out to be 3.4 kcal/mol/M, the “denaturant midpoint (higher = more stable)” value stood at 1.8 M and the unfolding free energy was found to be 6.3 kcal/mol.
